Reference: patent US20120004175A1 (RESEARCH FOUNDATION OF STATE UNIVERSITY OF NEW YORK, published 2012)

Target: T1, NF-κB p65 (mouse, intestinal epithelial cells of wild-type C57BL/6J and Min mice) (mouse, UniProt Q04207 1-549)
T1 construct: Endogenous mouse protein
Experiment: anti-p65 immunoprecipitation of nuclear extract from mouse intestinal epithelial cells, immunoblot

T1 sequence (Q04207 whole entry): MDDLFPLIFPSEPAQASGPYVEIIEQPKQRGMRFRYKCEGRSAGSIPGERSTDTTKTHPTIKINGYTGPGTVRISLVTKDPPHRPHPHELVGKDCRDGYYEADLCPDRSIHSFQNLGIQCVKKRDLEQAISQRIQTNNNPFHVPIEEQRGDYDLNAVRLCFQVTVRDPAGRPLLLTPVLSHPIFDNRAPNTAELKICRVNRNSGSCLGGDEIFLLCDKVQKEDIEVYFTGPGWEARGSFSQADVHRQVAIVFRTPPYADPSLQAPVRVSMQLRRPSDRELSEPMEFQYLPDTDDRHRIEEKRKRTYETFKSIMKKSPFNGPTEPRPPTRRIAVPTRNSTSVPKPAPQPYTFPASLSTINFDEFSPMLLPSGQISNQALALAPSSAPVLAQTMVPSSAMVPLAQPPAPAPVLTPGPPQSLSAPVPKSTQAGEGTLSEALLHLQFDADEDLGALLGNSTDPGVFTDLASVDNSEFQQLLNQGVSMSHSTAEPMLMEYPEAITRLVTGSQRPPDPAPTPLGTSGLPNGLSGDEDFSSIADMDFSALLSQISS

B1: annexin 1 (mouse, intestinal epithelial cells of wild-type C57BL/6J and Min mice) (other, UniProt P10107 2-346, looked up)
chain: AMVSEFLKQARFLENQEQEYVQAVKSYKGGPGSAVSPYPSFNVSSDVAALHKAIMVKGVDEATIIDILTKRTNAQRQQIKAAYLQENGKPLDEVLRKALTGHLEEVVLAMLKTPAQFDADELRGAMKGLGTDEDTLIEILTTRSNEQIREINRVYREELKRDLAKDITSDTSGDFRKALLALAKGDRCQDLSVNQDLADTDARALYEAGERRKGTDVNVFTTILTSRSFPHLRRVFQNYGKYSQHDMNKALDLELKGDIEKCLTTIVKCATSTPAFFAEKLYEAMKGAGTRHKALIRIMVSRSEIDMNEIKVFYQKKYGISLCQAILDETKGDYEKILVALCGGN
notes: Endogenous mouse protein; also called induced annexin 1
binding result: binds
